Test results as given in patent US20100298227A1 (published 2010).

Experiments:
[1] = molecular target: Detergent-soluble HLA-DR2 purified from MGAR cells (DRB1*1501) (human)
[2] = molecular target: Detergent-soluble HLA-DR1 purified from LG-2 cells (DRB1*0101) (human)
[3] = molecular target: Detergent-soluble HLA-DR4 purified from Priess cells (DRB1*0401) (human)
[4] = molecular target: Detergent-soluble HLA-DR1 purified from LG-2 cells (DRB1*0101) (human); assay: competition with biotinylated TAL for purified HLA-DR; competitor TAL
[5] = molecular target: Detergent-soluble HLA-DR2 purified from MGAR cells (DRB1*1501) (human); assay: as above
[6] = molecular target: Detergent-soluble HLA-DR4 purified from Priess cells (DRB1*0401) (human); assay: as above

Molecule | IC50 [1] [µM] | Kd [1] [nM] | IC50 [2] [µM] | Kd [2] [nM] | IC50 [3] [µM] | Kd [3] [nM] | fold amount of superantigen needed to inhibit TAL binding [4] [fold] | fold amount of superantigen needed to inhibit TAL binding [5] [fold] | fold amount of superantigen needed to inhibit TAL binding [6] [fold]
Copolymer 1 | 10.1 | 82 | 8.8 | 74 | 10.8 | 15 | – | – | –
GAL terpolymer (SD-1689), poly[L-Glu 0.153, L-Ala 0.479, L-Lys 0.365] | < 1000 | 17 | < 1000 | – | < 1000 | 3 | – | – | –
GTL terpolymer (SD-1697), poly[L-Tyr 0.162, L-Glu 0.259, L-Lys 0.579] | 25.4 | – | 43 | 4 | 43 | 8 | – | – | –
TAL terpolymer (SD-1691), poly[L-Tyr 0.102, L-Ala 0.542, L-Lys 0.353] | 2.7 | 17 | 3.3 | – | – | – | – | – | –
TGA terpolymer (SD-1690), poly[L-Tyr 0.136, L-Glu 0.21, L-Ala 0.648] | 9.5 | 8 | 1.3 | 10 | 1 | 8 | – | – | –
bacterial superantigen TSST-1 (other) STNDNIKDLLDWYSSGSDTFTNSEVLDNSLGSMRIKNTDGSISLIIFPSPYYSPAFTKGEKVDLNTKRTKKSQHTSEGTYIHFQISGVTNTEKLPTPIELPLKVKVHGKDSPLKYGPKFDKKQLAISTLDFEIRHQLTQIHGLYRSSDKTGGYWKITMNDGSTYQSDLSKKFEYNTEKPPINIDEIKTIEAEIN | – | – | – | – | – | – | 50 | 50 | 50
bacterial superantigen SEA (other) SEKSEEINEKDLRKKSELQGTALGNLKQIYYYNEKAKTENKESHDQFLQHTILFKGFFTDHSWYNDLLVDFDSKDIVDKYKGKKVDLYGAYYGYQCAGGTPNKTACMYGGVTLHDNNRLTEEKKVPINLWLDGKQNTVPLETVKTNKKNVTVQELDLQARRYLQEKYNLYNSDVFDGKVQRGLIVFHTSTEPSVNYDLFGAQGQYSNTLLRIYRDNKTINSENMHIDIYLYTS | – | – | – | – | – | – | 50 | 50 | 50
bacterial superantigen SEB (other) ESQPDPKPDELHKSSKFTGLMENMKVLYDDNHVSAINVKSIDQFLYFDLIYSIKDTKLGNYDNVRVEFKNKDLADKYKDKYVDVFGANYYYQCYFSKKTNDINSHQTDKRKTCMYGGVTEHNGNQLDKYRSITVRVFEDGKNLLSFDVQTNKKKVTAQELDYLTRHYLVKNKKLYEFNNSPYETGYIKFIENENSFWYDMMPAPGDKFDQSKYLMMYNDNKMVDSKDVKIEVYLTTKKK | – | – | – | – | – | – | 50 | 50 | 50
